Assay results taken from IntAct's records for PubMed 9355745.

B1: Tyrosine-protein phosphatase non-receptor type 1 (Homo sapiens), P18031 (parent)
chain: MEMEKEFEQIDKSGSWAAIYQDIRHEASDFPCRVAKLPKNKNRNRYRDVSPFDHSRIKLHQEDNDYINASLIKMEEAQRSYILTQGPLPNTCGHFWEMVWEQKSRGVVMLNRVMEKGSLKCAQYWPQKEEKEMIFEDTNLKLTLISEDIKSYYTVRQLELENLTTQETREILHFHYTTWPDFGVPESPASFLNFLFKVRESGSLSPEHGPVVVHCSAGIGRSGTFCLADTCLLLMDKRKDPSSVDIKKVLLEMRKFRMGLIQTADQLRFSYLAVIEGAKFIMGDSSVQDQWKELSHEDLEPPPEHIPPPPRPPKRILEPHNGKCREFFPNHQWVKEETQEDKDCPIKEEKGSPLNAAPYGIESMSQDTEVRSRVVGGSLRGAQAASPAKGEPSLPEKDEDHALSYWKPFLVNMCVATVLTAGAYLCYRFLFNSNT

Variants of: B1
Details: with pgfrb_human PDGFRB
In the case of MEMEKEFEQIDKSGSWAAIYQDIRHEASDFPCRVAKLPKNKNRNRYRDVSPFDHSRIKLHQEDNDYINASLIKMEEAQRSYILTQGPLPNTCGHFWEMVWEQKSRGVVMLNRVMEKGSLKCAQYWPQKEEKEMIFEDTNLKLTLISEDIKSYYTVRQLELENLTTQETREILHFHYTTWPDFGVPESPASFLNFLFKVRESGSLSPEHGPVVVHSSAGIGRSGTFCLADTCLLLMDKRKDPSSVDIKKVLLEMRKFRMGLIQTADQLRFSYLAVIEGAKFIMGDSSVQDQWKELSHEDLEPPPEHIPPPPRPPKRILEPHNGKCREFFPNHQWVKEETQEDKDCPIKEEKGSPLNAAPYGIESMSQDTEVRSRVVGGSLRGAQAASPAKGEPSLPEKDEDHALSYWKPFLVNMCVATVLTAGAYLCYRFLFNSNT [C215S], the “effect of a mutation on the interaction” value is reported as “increasing interaction”.
